The values below come from patent publication US20030175278A1.

What all share (test): Y2H β-galactosidase liquid culture assay (ONPG)
For assay [1], the target named is PS1-Loop Y2H bait (human).
In assay [2] the target is PS1-COOH terminus Y2H bait (human).
Assay [3] has as its target PS2-Loop Y2H bait (human) (UniProt P49810).

Bounds are passed on as bounds.

Chain of PS2-Loop Y2H bait (human) (P49810 271-361): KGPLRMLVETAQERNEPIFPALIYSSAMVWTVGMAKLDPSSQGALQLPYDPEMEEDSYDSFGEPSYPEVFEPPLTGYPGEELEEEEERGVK
Chain of PS1-Loop Y2H bait (human) (P79802 273-380): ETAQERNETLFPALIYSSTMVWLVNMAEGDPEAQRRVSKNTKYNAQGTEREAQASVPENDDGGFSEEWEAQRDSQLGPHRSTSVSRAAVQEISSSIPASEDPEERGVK

With “near full-length ubiquilin-prey clone (FIG. 2 III, construct H without GST), M37-S595 (from UniProt Q9UMX0 37-587)”, the interaction strength relative to the PS2-COOH-terminal bait in assay [1] and in assay [3] was 2 fold in each case. In addition, the fold β-galactosidase activity compared with negative-control baits in assay [2] is greater than 12 fold.
